Reference: IntAct's records for PubMed 19361433

B1: Probable ATP-dependent transporter SufC (Escherichia coli (strain K12)), P77499 (parent)
chain: MLSIKDLHVSVEDKAILRGLSLDVHPGEVHAIMGPNGSGKSTLSATLAGREDYEVTGGTVEFKGKDLLALSPEDRAGEGIFMAFQYPVEIPGVSNQFFLQTALNAVRSYRGQETLDRFDFQDLMEEKIALLKMPEDLLTRSVNVGFSGGEKKRNDILQMAVLEPELCILDESDSGLDIDALKVVADGVNSLRDGKRSFIIVTHYQRILDYIKPDYVHVLYQGRIVKSGDFTLVKQLEEQGYGWLTEQQ
partner: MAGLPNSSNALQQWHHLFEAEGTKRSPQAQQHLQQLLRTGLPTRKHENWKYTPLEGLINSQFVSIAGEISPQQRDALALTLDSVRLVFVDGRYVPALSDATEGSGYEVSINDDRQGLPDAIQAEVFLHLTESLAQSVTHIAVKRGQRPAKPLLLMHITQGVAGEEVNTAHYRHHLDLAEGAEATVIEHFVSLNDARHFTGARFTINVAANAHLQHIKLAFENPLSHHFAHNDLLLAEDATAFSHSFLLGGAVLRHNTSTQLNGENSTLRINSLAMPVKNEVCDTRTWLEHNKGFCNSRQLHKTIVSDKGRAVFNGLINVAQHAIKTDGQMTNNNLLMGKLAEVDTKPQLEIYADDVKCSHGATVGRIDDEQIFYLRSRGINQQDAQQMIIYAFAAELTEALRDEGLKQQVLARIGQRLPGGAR

Variants of: B1
Conditions: with sufd_ecoli sufD

| effect of a mutation on the interaction | Variant |
| --- | --- |
| increasing interaction | MLSIKDLHVSVEDKAILRGLSLDVHPGEVHAIMGPNGSGKSTLSATLAGREDYEVTGGTVEFKGKDLLALSPEDRAGEGIFMAFQCPVEIPGVSNQFFLQTALNAVRSYRGQETLDRFDFQDLMEEKIALLKMPEDLLTRSVNVGFSGGEKKRNDILQMAVLEPELCILDESDSGLDIDALKVVADGVNSLRDGKRSFIIVTHYQRILDYIKPDYVHVLYQGRIVKSGDFTLVKQLEEQGYGWLTEQQ [Y86C] |
